Laboratory results reported in patent US12649783B2, “Anti-MCT1 antibodies and uses thereof” (IMMUNEXT INC., priority 2018, dated 2026).

Legend:
xeno-GVHD = test: xeno-GvHD model with anti-MCT1 antibodies (human PBMC into NSG mice); assay type: in vivo, mouse
Procedure: In this model of GvHD animals male NSG mice are treated with sub-lethal irradiation (250 rad), and afterward these mice receive 2.5×10^6 of fresh human PBMC (day 0). First dose of anti-human MCT1 is combined with cells and injected i.v. The follow up treatment schedule is weekly (day 7, 14 and 21, IP).
For re-challenge experiments previously treated with anti-MCT1 (days 0, 7, 14, 21) NSG mice receive a second dose of 2.5×10^6 of previously frozen human PBMC of the same donor (day 42). Survival and weight loss of these mice is monitored with no additional antibody treatments and compared to a new cohort of NSG mice receiving same donor PBMCs.
100 ul of total blood is used for analysis: blood was stained using a Stain-1 wash protocol to allow absolute cell count with Ab panel below followed by FACS lysis buffer 1× (BD Bioscience, #349202); whole blood was incubated with a 10× antibody (shown below) and after 30 min, the blood was lysed in a large volume of 1× lysis buffer (at least 6 times) following manufacturer instructions; or blood was first lysed with ACK (10 min), washed in PBS and stained with antibody mix, exactly as described in the table below.

[1] = tested on: human RBC lactate transport; test: FLIPR lactate transport in purified human RBCs; assay type: cell-based; settings: 10 mM lactate
Procedure: MCT1 Ab1 and AZ3965 were used to inhibit MCT1 lactate transport in purified human RBCs using FLIPR based transport assays (REF. 1, 2) in the presence of 10 mM lactate. The levels of lactate transport were compared to a no lactate control condition and a no inhibitor condition in the presence of lactate.

rat MCT1 = target: T1, rat MCT1 (Rattus norvegicus, UniProt P53987); test: flow cytometry binding to PBMCs, rat
T1 construct: endogenous in cells; host or cells: rat PBMCs
T1 sequence (P53987 1-494): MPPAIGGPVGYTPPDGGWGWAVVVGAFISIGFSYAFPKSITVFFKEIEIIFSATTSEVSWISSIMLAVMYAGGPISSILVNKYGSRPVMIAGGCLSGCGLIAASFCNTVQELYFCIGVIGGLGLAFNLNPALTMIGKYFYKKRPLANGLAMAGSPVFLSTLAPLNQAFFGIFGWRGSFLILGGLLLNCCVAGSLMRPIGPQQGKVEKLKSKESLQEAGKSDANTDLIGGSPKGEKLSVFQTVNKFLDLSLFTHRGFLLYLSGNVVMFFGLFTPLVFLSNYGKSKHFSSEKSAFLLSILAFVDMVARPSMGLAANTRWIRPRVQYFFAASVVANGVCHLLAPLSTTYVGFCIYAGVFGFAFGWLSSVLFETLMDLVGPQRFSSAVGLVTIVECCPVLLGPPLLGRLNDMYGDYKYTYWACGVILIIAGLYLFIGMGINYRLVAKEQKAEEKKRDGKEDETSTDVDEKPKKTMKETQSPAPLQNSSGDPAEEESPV
Excerpt: (§1) FIG. 12A-D show the cross-reactivity of MCT1 Ab1 as assessed via flow cytometry measurements of binding to MCT1 on the surface of different species' PBMCs.
(§2) Binding affinity and MCT1 cross-reactivity. […] MCT1 Ab1 is also highly cross-reactive with cynomolgus (cyno) and rabbit MCT1, but not with rodent MCT1 (FIG. 12A-D).

[2] = repeated dosing safety in cynomolgus monkeys; assay type: in vivo, cynomolgus monkey
Excerpt: In order to further corroborate the safety and efficacy of anti-MCT1 antibodies for human therapy we administered dosages of 50 mpk of anti-human MCT1 antibodies to cynomolgus monkeys. As disclosed in this example and corroborated by the figure referenced herein no toxicity was observed after 30 days.
As shown in FIG. 23 cynomolgus red blood cells (RBCs) express high levels of MCT1. Based thereon we tested the effects of antagonistic anti-MCT1 antibodies in cyno monkeys and in particular looked at any effects on RBCs after anti-MCT1 antibody dosing. Also, we determined whether cynos could tolerate a therapeutic effective dosage of the antibody.

rabbit MCT1 = test: flow cytometry binding to PBMCs, rabbit
Excerpt: as §1, §2

[3] = target: T2, MCT1 transport of lactate (Homo sapiens, UniProt P53985); test: lactate FLIPR assay; assay type: cell-based; settings: activated T cells; FLIPR Tetra, BCECF; read-out: Kd for block of lactate transport
T2 construct: endogenous in cells
T2 sequence (P53985 1-500): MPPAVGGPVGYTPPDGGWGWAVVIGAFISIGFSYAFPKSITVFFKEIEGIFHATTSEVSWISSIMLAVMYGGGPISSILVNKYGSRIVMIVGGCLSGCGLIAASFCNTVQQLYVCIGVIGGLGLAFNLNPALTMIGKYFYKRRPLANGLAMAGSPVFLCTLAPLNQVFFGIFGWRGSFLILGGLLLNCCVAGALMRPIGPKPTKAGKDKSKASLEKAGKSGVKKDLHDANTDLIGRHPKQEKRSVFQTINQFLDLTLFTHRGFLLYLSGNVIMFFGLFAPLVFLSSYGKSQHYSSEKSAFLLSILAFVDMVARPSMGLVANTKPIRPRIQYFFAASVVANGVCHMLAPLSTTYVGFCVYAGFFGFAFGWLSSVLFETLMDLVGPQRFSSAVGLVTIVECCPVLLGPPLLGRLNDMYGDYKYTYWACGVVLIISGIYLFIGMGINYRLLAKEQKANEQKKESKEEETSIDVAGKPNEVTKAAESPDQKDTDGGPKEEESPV
Excerpt: Effects on lactate transport.
Inhibition of lactate transport.

PK in cynos = assay type: in vivo, cynomolgus monkey; settings: preliminary PK data
[4] = target: T3, MCT1 on the surface of human PBMCs (Homo sapiens, UniProt P53985); test: flow cytometry binding to PBMCs, human
T3 construct: endogenous in cells; host or cells: human PBMCs (unstimulated and stimulated)
T3 sequence (P53985 1-500): T2 sequence (P53985 1-500)
Excerpt: as §1, §2

B1: MCT1 Ab1: rat anti-human MCT1 monoclonal antibody (rat/human chimera); VH/VL SEQ ID NO: 2/3 (antibody, V domains shown)
VH: QVQLKATGPGLVQPTQTLSITCTVSGFSLTNYHLQWVRQTPGKGLEWMGFIRSSGNTEYNSEFKSRLSISRDTSKNQVFLKMNSLKTDDTGVYYCARNSWYHGTYYSPGYYVMDAWGQGASVTVSS
VL: NIHLTQSPSLLSASVGDRVTLSCKGSQNINNYLAWFQQKFGETPKLLIYNRHNLQTGIPSRFSGSGSGTDYTLTINSLQPEDVATYFCYQYSDGYTFGAGTKLELK
modifications: MCT1 Ab1 (INX310) VH; MCT1 Ab1 (INX310) VL
- number of CD3+, CD4+ and CD8+ effector T cells (xeno-GVHD; compared to NSG mice treated with control antibody): significant decrease in the number of CD3^+, CD4^+ and CD8^+ effector T cells
- Tr1 cells (xeno-GVHD; compared to control antibody): increases in Tr1 cells
- MABEL in xeno-GVHD (xeno-GVHD; mouse, in vivo): ~1 mpk
- survival, long-term protection and tolerance (xeno-GVHD; re-challenge at day 42 with PBMC of the same donor): increased survival, long-term protection and tolerance induction
- lactate transport in human RBCs [1]: unaffected
- binding to MCT1 on PBMCs (rat MCT1): does not bind to rat MCT1
- histological findings (heart, muscle, testis and eye, H & E) ([2]; 4 weekly doses at 50 mpk): no adverse histological findings
- in-life toxicity ([2]; 30 days, 4 weekly doses at 50 mpk): no significant in-life toxicity
- RBC mass after dosing ([2]; cynos, 50 mpk): initial reduction of RBC mass after dosing this resolves after a short time
- tolerability of repeated dosing ([2]; cynos, 50 mpk): tolerate repeated dosing
- binding to MCT1 on PBMCs (rabbit MCT1): binds to rabbit MCT1
- Kd [3]: 7.6 nM
- dose rate at which the RBC sink is saturated (PK in cynos): ≥ 5 mpk
- binding to MCT1 on PBMCs [4]: binds to MCT1 on the surface of human PBMCs
